According to the supplement of paper PMC10266784:

B1: library; numbered along this chain (parent)
chain: MAAAAAAAAEQQSSNGPVKKSMREKAVERRSVNKEHNSNFKAGYIPIDEDRLHKTGLRGRKGNLAICVIILLFILAVINLIITLVIWAVIRIGPNGCDSMEFHESGLLRFKQVSDMGVIHPLYKSTVGGRRNENLVITGNNQPIVFQQGTTKLSVENNKTSITSDIGMQFFDPRTQNILFSTDYETHEFHLPSGVKSLNVQKASTERITSNATSDLNIKVDGRAIVRGNEGVFIMGKTIEFHMGGNMELKAENSIILNGSVMVSTTRLPSSSSGDQLGSGDWVRYKLCMCADGTLFKVQVTSQNMGCQISDNPCGNTH

Variants of: B1
Experiment: SGCB cell-surface expression functional score (HA stain, bin4 vs bin1, normalised to synonymous) (log10 ratio); higher = more cell-surface SGCB (functional)
In short: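 Using lentivirus at MOI <0.1, HA-tagged, YFP-fused human beta-sarcoglycan codon-saturation libraries were put into HEK293 cells with stable alpha-, gamma- and delta-sarcoglycan expression, in duplicate transductions. YFP-positive cells were collected by sorting 72 hours later, grown 5–7 days, stained on ice with Alexa Fluor 647 anti-HA, fixed, sorted into four 5% intensity bins and amplicon-sequenced. The functional score takes the median, across codons and transductions, of the log ratio of highest-bin to lowest-bin variant frequency. Within each section, synonymous variants were scaled to mean 0, SD 0.5.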

Variant	SGCB cell-surface expression functional score (log10)
MAAAAAAAAEQQSSNGPVKKSMREKAVERRSVNKEHNSNFKAGYIPIDEDRLHKTGLRGRKGNLAICVIILLFILAVINLIITLVIWAVIRIGPNGCDSMEFHESGLLRFKQVSDMGVIHPLYKSTVGGRRNENLVITGNNQPIVFQQGTTKLSVENNKTSITSDIGMQFFDPRTQNILFSTDYETHEFHLPSGVKSLNVQKASTERITSNATSDLNIKVDGRAIVRGNEGVFIMGKTIEFHMGGNMELKAENSIILNGSVMVSTTRLPSSSSGDQLGSGDWVRYKLCMCADGTLFKVQVTSQNMGCQISDNPCGITH [N316I]	-0.06
MAAAAAAAAEQQSSNGPVKKSMREKAVERRSVNKEHNSNFKAGYIPIDEDRLHKTGLRGRKGNLAICVIILLFVLAVINLIITLVIWAVIRIGPNGCDSMEFHESGLLRFKQVSDMGVIHPLYKSTVGGRRNENLVITGNNQPIVFQQGTTKLSVENNKTSITSDIGMQFFDPRTQNILFSTDYETHEFHLPSGVKSLNVQKASTERITSNATSDLNIKVDGRAIVRGNEGVFIMGKTIEFHMGGNMELKAENSIILNGSVMVSTTRLPSSSSGDQLGSGDWVRYKLCMCADGTLFKVQVTSQNMGCQISDNPCGNTH [I74V]	-0.01
MAAAAAAAAEQQSSYGPVKKSMREKAVERRSVNKEHNSNFKAGYIPIDEDRLHKTGLRGRKGNLAICVIILLFILAVINLIITLVIWAVIRIGPNGCDSMEFHESGLLRFKQVSDMGVIHPLYKSTVGGRRNENLVITGNNQPIVFQQGTTKLSVENNKTSITSDIGMQFFDPRTQNILFSTDYETHEFHLPSGVKSLNVQKASTERITSNATSDLNIKVDGRAIVRGNEGVFIMGKTIEFHMGGNMELKAENSIILNGSVMVSTTRLPSSSSGDQLGSGDWVRYKLCMCADGTLFKVQVTSQNMGCQISDNPCGNTH [N15Y]	0.13
MAAAAAAAAEQQSSNGPVKKSMREKAVERRSVNKEHNSNFKAGYIPIDEDRLHKTGLRGRKGNLAICVIIWLFILAVINLIITLVIWAVIRIGPNGCDSMEFHESGLLRFKQVSDMGVIHPLYKSTVGGRRNENLVITGNNQPIVFQQGTTKLSVENNKTSITSDIGMQFFDPRTQNILFSTDYETHEFHLPSGVKSLNVQKASTERITSNATSDLNIKVDGRAIVRGNEGVFIMGKTIEFHMGGNMELKAENSIILNGSVMVSTTRLPSSSSGDQLGSGDWVRYKLCMCADGTLFKVQVTSQNMGCQISDNPCGNTH [L71W]	0.61
MAAAAAAAAEQQSSNGPVKKSMREKAVERRSVNKEHNSNFKAGYIPIDEDRLHKTGLRGRKGNLAICVIILLFILAVINLIITLVIWAVIRIGPNGCDSEEFHESGLLRFKQVSDMGVIHPLYKSTVGGRRNENLVITGNNQPIVFQQGTTKLSVENNKTSITSDIGMQFFDPRTQNILFSTDYETHEFHLPSGVKSLNVQKASTERITSNATSDLNIKVDGRAIVRGNEGVFIMGKTIEFHMGGNMELKAENSIILNGSVMVSTTRLPSSSSGDQLGSGDWVRYKLCMCADGTLFKVQVTSQNMGCQISDNPCGNTH [M100E]	-1.92
MAAAAAAAAEQQSSNGPVKKSMREKAVERRSVNKEHNSNFKAGYIPIDEDRLHKTGLRGRKGNLAICVIILLFILAVINLIITLVIWAVIRIGPNGCDSMEFHESGLLRFKQVSDMGVIHPLYKSTVGGRRNENLVITGNNQPIVFQQGTTKLSVENNKTSITSDIGMQFFDPRTQNILFSTDYETHEFHLPSGVKSLNVQKASTERITSNATSDLNIKVDGRAIVRGNEGVFIMGKTIEFHMGGNMELKAENSIILNGSVMVSTWRLPSSSSGDQLGSGDWVRYKLCMCADGTLFKVQVTSQNMGCQISDNPCGNTH [T266W]	0.59
MAAAAAAAAEFQSSNGPVKKSMREKAVERRSVNKEHNSNFKAGYIPIDEDRLHKTGLRGRKGNLAICVIILLFILAVINLIITLVIWAVIRIGPNGCDSMEFHESGLLRFKQVSDMGVIHPLYKSTVGGRRNENLVITGNNQPIVFQQGTTKLSVENNKTSITSDIGMQFFDPRTQNILFSTDYETHEFHLPSGVKSLNVQKASTERITSNATSDLNIKVDGRAIVRGNEGVFIMGKTIEFHMGGNMELKAENSIILNGSVMVSTTRLPSSSSGDQLGSGDWVRYKLCMCADGTLFKVQVTSQNMGCQISDNPCGNTH [Q11F]	0.07
MAAAAAAAAEQQSSNGPVKKSMREKAVERRSVNKEHNSNFKAGYIPIDEDRLHKTGLRGRKGNLAICVIILLFILAVINLIITLVIWAVIRIGPNGCDSMEFHESGLLRFKQVSDMGVIHPLYKSTVGGRRNENLVITGNNQPIVFQQGTTKLSVENNKTSITSDIGMQFFDPRTQNILFSTDYETHEFHLPSGVKSLNVQKASTERITSNATSDLNIKVDGRAIVRGNEGVFIMGKTIEFHMGGNFELKAENSIILNGSVMVSTTRLPSSSSGDQLGSGDWVRYKLCMCADGTLFKVQVTSQNMGCQISDNPCGNTH [M247F]	1.03
MAAAAAAAAEQQSSNGPVKKSMREKAVERRSVNKEHNSNFKAGYIPIDEDRLHKTGLRGRKGNLAICVIILLFILAVINLIITLVIWAVIRIGPNGCDSMEFHASGLLRFKQVSDMGVIHPLYKSTVGGRRNENLVITGNNQPIVFQQGTTKLSVENNKTSITSDIGMQFFDPRTQNILFSTDYETHEFHLPSGVKSLNVQKASTERITSNATSDLNIKVDGRAIVRGNEGVFIMGKTIEFHMGGNMELKAENSIILNGSVMVSTTRLPSSSSGDQLGSGDWVRYKLCMCADGTLFKVQVTSQNMGCQISDNPCGNTH [E104A]	0.22
MAAAAAAAAEQQSSNGPVKKSMREKAVERRSVNKEHNSNFKAGYIPIDEDRLHKTGLRGRKGNLAICVIILLFILAVINLIITLVIWAVIRIGPNGCDSMEFHESGLLRFKQVSDMGVIHPLYKSTVGGRRNENLVITGNNQPIVFQQGTTKLSVENNKTSITSDIGMQFFDPRTQNILFSTDYETHEFHLPSGVKSLNVQKASTERITSNATSDLNIKVDGRAIVRGNEGVFIMGKTIEFHMGGNMELKAENSIILNGSVMVSTTRLPSSSSGDQLGSGDWVRYKLCMCADWTLFKVQVTSQNMGCQISDNPCGNTH [G293W]	-0.35
MAAAAAAAAEQQSSNGPVKKSMREKAVERRSVNKEHNSNFKAGYIPIDEDRLHKTGLRGRKGNLAICVIILLFILAVINLIITLVIWAVIRIGPNGCDSMEFHESGLLRFKQVSDMGVIHPLYKSTVGGRRNENLVITGNNQPIVFQQGTTKLSVENNKTSITSDIGMQFFDPRTQNILFSTDYETHEFHLPSGVKSLNVQKASTERITSNATSDLNIKVDGRAIVRGNEGVFIMGKTIEFHMGGNMELKAENSIILNGSVMVSTTRLPSSSSGDQLGSGDWVRYKLCMCADGTLFKVQVTSQNMGIQISDNPCGNTH [C307I]	-1.65
MAAAAAAAAEQQSSNGPVKKSMREKAVERRSVNKEHNSNFKAGYIPIDEDRLHKTGLRGRKGNLAICVIILLFILAVINLIITLVIWAVIRIGPNGCDSMEFHESGLLRFKQVSDMGVIHPLYGSTVGGRRNENLVITGNNQPIVFQQGTTKLSVENNKTSITSDIGMQFFDPRTQNILFSTDYETHEFHLPSGVKSLNVQKASTERITSNATSDLNIKVDGRAIVRGNEGVFIMGKTIEFHMGGNMELKAENSIILNGSVMVSTTRLPSSSSGDQLGSGDWVRYKLCMCADGTLFKVQVTSQNMGCQISDNPCGNTH [K124G]	0.08
MAAAAAAAAEQQSSNGPVKKSMREKAVERRSVNKEHNSNFKAGYIPIDEDRLHKTGLRGRKGNLAICVIILLFILAVINLIITLVIWAVIRIGPNGCDSMEFHESGLLRFKQVSDMGVIHPLYKSTVGGRRNENLVIKGNNQPIVFQQGTTKLSVENNKTSITSDIGMQFFDPRTQNILFSTDYETHEFHLPSGVKSLNVQKASTERITSNATSDLNIKVDGRAIVRGNEGVFIMGKTIEFHMGGNMELKAENSIILNGSVMVSTTRLPSSSSGDQLGSGDWVRYKLCMCADGTLFKVQVTSQNMGCQISDNPCGNTH [T138K]	-0.25
MAAAAAAAAEQQSSNGPVKKSMREKAVERRSVNKEHNSNFKAGYIPIDEDRLHKTGLRGRKGNLAICVIILLFILAVINLIITLVIWAVIRIGPNGCDSMEFHESGLLRFKQVSDMGVIHPHYKSTVGGRRNENLVITGNNQPIVFQQGTTKLSVENNKTSITSDIGMQFFDPRTQNILFSTDYETHEFHLPSGVKSLNVQKASTERITSNATSDLNIKVDGRAIVRGNEGVFIMGKTIEFHMGGNMELKAENSIILNGSVMVSTTRLPSSSSGDQLGSGDWVRYKLCMCADGTLFKVQVTSQNMGCQISDNPCGNTH [L122H]	0.55
MAAAAAAAAEQQSSNGPVKKSMREKAVERRSVNKEHNSNFKAGYIPIDEDRLHKTGLRGRKGNLAICVIILLFILAVINLIITLVIWAVIRIGPNGCDSMEFHESGLLRFKQVSDMGVIHPLYKSTVGGRRNENLVITGNNQPIVFQQGTTKLSVENNKTSITSDIGMQFFDPRTQNILFSTDYETHEFHLPSGVKSLNVQKASTERITSNATSDLNIKVDGRAIVRGNEGVFIMGKTIEFHMGGNMELKAENSIILNGSVMVSTTRLPSSSSGDQLGSGDWVRYKLCMCADGTLFKVQVTSQNMGCQISDNPCGNWH [T317W]	0.32
MAAAAAAAAEQQSSNGPVKKSMREKAVERRSVNEEHNSNFKAGYIPIDEDRLHKTGLRGRKGNLAICVIILLFILAVINLIITLVIWAVIRIGPNGCDSMEFHESGLLRFKQVSDMGVIHPLYKSTVGGRRNENLVITGNNQPIVFQQGTTKLSVENNKTSITSDIGMQFFDPRTQNILFSTDYETHEFHLPSGVKSLNVQKASTERITSNATSDLNIKVDGRAIVRGNEGVFIMGKTIEFHMGGNMELKAENSIILNGSVMVSTTRLPSSSSGDQLGSGDWVRYKLCMCADGTLFKVQVTSQNMGCQISDNPCGNTH [K34E]	0.34
MAAAAAAAAEQQSSNGPVKKSMREKAVERRSVNKEHNSNFKAGYIPIDWDRLHKTGLRGRKGNLAICVIILLFILAVINLIITLVIWAVIRIGPNGCDSMEFHESGLLRFKQVSDMGVIHPLYKSTVGGRRNENLVITGNNQPIVFQQGTTKLSVENNKTSITSDIGMQFFDPRTQNILFSTDYETHEFHLPSGVKSLNVQKASTERITSNATSDLNIKVDGRAIVRGNEGVFIMGKTIEFHMGGNMELKAENSIILNGSVMVSTTRLPSSSSGDQLGSGDWVRYKLCMCADGTLFKVQVTSQNMGCQISDNPCGNTH [E49W]	0.56
MAAAAAAAAEQQSSNGPVKKSMREKAVERRSMNKEHNSNFKAGYIPIDEDRLHKTGLRGRKGNLAICVIILLFILAVINLIITLVIWAVIRIGPNGCDSMEFHESGLLRFKQVSDMGVIHPLYKSTVGGRRNENLVITGNNQPIVFQQGTTKLSVENNKTSITSDIGMQFFDPRTQNILFSTDYETHEFHLPSGVKSLNVQKASTERITSNATSDLNIKVDGRAIVRGNEGVFIMGKTIEFHMGGNMELKAENSIILNGSVMVSTTRLPSSSSGDQLGSGDWVRYKLCMCADGTLFKVQVTSQNMGCQISDNPCGNTH [V32M]	-0.13
MAAAAAAAAEQQSSNGPVKKSMREKAVERRSVNKEHNSNFKAGYIPIDEDRLHKTGLRGRKGFLAICVIILLFILAVINLIITLVIWAVIRIGPNGCDSMEFHESGLLRFKQVSDMGVIHPLYKSTVGGRRNENLVITGNNQPIVFQQGTTKLSVENNKTSITSDIGMQFFDPRTQNILFSTDYETHEFHLPSGVKSLNVQKASTERITSNATSDLNIKVDGRAIVRGNEGVFIMGKTIEFHMGGNMELKAENSIILNGSVMVSTTRLPSSSSGDQLGSGDWVRYKLCMCADGTLFKVQVTSQNMGCQISDNPCGNTH [N63F]	0.08
